No end group written: not given here.
Target: T1, PHF2(1–70), PHD domain of human PHF2 (residues 1–70) (human, UniProt O75151 1-70)
T1 sequence: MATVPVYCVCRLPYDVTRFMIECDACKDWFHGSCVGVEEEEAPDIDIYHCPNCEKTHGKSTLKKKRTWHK
Assay: ITC

Binder ARTK(me3)QTARKSTG [H3(1-12)K4me3 peptide (12-mer of the N-terminal tail of histone H3, trimethylated at lysine 4)] has a Kd of 0.64 µM.
